Assay results from publication PMC13235457.
pKd: −log10 of the molar value.

Tests used:
[1] = target: ZAP-70 tSH2 domain R190A mutant (human) (UniProt P43403); experiment: ITC; 20 μM R190A tSH2 in the cell, 300 μM ITAM-ζ1-Y2P in the syringe; 20 °C; 20 mM HEPES pH 8.2, 5 mM β-mercaptoethanol, glycerol-free; 150 mM NaCl; one-site model
[2] = target: ZAP-70 tSH2 domain R190A mutant (human) (UniProt P43403); experiment: ITC; 20 μM R190A tSH2 in the cell, 300 μM ITAM-ζ1-Y2P in the syringe; 20 °C; 20 mM HEPES pH 8.2, 5 mM β-mercaptoethanol, glycerol-free; 20 mM KCl; one-site model
[3] = target: ZAP-70 tSH2 domain R190A mutant (human) (UniProt P43403); experiment: ITC; 20 μM R190A tSH2 in the cell, 300 μM ITAM-ζ1-Y2P in the syringe; 20 °C; 20 mM HEPES pH 8.2, 5 mM β-mercaptoethanol, glycerol-free; 5 mM KCl; one-site model

pKd [1]: 5.20
pKd [2]: 4.68
pKd [3]: 5.01
Substance: ITAM-ζ1-Y2P peptide (doubly phosphorylated first ITAM of the CD3-ζ chain)
